{"source": "paper PMC4481117", "about": "“The opioid peptide dynorphin A induces leukocyte responses via integrin Mac-1 (αMβ2, CD11b/CD18)” (Molecular Pain, 2015)", "binders": {"B1": {"name": "dynorphin AB library peptide, spot 2 (FLRRIRPKL) (peptide)", "peptide": "Ac-FLRRIRPKL-{βAla-βAla-cellulose}", "notes": "9-mer of dynorphin AB; source: synthetic peptide, parallel spot synthesis on cellulose membrane"}, "B2": {"name": "dynorphin AB library peptide, spot 1 (YGGFLRRIR) (peptide)", "peptide": "Ac-YGGFLRRIR-{βAla-βAla-cellulose}", "notes": "9-mer of dynorphin AB; also called peptide #1; source: synthetic peptide, parallel spot synthesis on cellulose membrane"}, "B3": {"name": "dynorphin A (peptide)", "peptide": "YGGFLRRIRPKLKWDNQ"}}, "key": {"[1]": {"molecular_target": "T1, 125I-labeled αMI-domain, active form (αM Glu123-Lys315) (UniProt P11215 139-331, 125I label)", "T1 construct": "also called recombinant αMI-domain; α7 helix-truncated αMI-domain", "T1 sequence (P11215 139-331)": "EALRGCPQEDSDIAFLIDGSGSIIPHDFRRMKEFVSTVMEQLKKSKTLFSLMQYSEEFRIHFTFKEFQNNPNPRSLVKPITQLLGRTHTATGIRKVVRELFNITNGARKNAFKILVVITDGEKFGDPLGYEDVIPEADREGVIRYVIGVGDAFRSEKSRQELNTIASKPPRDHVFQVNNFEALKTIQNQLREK", "assay": "peptide or protein array; 9-mer peptides on cellulose membrane (SPOT synthesis), blocked with 1 % BSA, incubated with 10 μg/ml 125I-labeled αMI-domain in TBS with 1 mM MgCl2; autoradiography and densitometry", "details": "both partners purified"}, "[2]": {"molecular_target": "integrin Mac-1 on IC-21 murine macrophages (mouse (endogenous in IC-21), UniProt P05555 17-1153; P11835 24-771)", "sequence (P05555 17-1153, chain 1 of 2)": "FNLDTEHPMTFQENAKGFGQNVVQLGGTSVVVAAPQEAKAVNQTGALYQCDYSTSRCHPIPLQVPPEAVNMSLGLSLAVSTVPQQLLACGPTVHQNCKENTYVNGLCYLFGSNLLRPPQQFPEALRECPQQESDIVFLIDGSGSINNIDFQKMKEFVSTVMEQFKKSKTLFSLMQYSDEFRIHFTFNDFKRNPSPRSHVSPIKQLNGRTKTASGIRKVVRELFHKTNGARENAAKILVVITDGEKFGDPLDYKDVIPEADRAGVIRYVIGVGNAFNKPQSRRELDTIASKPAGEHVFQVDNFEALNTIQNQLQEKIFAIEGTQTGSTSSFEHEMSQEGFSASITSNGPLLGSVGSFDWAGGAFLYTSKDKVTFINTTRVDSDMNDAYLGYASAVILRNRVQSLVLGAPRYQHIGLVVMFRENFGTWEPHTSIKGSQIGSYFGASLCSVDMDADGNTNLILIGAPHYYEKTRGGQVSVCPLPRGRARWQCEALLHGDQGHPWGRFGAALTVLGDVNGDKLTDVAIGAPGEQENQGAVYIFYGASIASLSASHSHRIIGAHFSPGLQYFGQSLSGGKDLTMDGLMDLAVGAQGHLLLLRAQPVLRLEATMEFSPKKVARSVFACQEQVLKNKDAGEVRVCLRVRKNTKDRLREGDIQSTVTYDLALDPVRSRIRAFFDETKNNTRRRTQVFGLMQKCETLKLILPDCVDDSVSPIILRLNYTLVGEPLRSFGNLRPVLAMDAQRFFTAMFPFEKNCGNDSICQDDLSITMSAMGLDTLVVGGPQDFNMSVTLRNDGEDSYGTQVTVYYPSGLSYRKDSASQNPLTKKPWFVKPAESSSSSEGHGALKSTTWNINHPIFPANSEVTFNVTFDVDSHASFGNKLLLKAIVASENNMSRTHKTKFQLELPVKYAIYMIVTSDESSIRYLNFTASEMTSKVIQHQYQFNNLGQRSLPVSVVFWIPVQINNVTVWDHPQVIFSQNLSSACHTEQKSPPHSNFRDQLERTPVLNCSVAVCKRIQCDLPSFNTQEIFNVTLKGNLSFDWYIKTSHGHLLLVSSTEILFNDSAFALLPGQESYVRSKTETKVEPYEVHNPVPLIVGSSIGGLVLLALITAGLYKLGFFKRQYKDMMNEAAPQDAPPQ", "sequence (P11835 24-771, chain 2 of 2)": "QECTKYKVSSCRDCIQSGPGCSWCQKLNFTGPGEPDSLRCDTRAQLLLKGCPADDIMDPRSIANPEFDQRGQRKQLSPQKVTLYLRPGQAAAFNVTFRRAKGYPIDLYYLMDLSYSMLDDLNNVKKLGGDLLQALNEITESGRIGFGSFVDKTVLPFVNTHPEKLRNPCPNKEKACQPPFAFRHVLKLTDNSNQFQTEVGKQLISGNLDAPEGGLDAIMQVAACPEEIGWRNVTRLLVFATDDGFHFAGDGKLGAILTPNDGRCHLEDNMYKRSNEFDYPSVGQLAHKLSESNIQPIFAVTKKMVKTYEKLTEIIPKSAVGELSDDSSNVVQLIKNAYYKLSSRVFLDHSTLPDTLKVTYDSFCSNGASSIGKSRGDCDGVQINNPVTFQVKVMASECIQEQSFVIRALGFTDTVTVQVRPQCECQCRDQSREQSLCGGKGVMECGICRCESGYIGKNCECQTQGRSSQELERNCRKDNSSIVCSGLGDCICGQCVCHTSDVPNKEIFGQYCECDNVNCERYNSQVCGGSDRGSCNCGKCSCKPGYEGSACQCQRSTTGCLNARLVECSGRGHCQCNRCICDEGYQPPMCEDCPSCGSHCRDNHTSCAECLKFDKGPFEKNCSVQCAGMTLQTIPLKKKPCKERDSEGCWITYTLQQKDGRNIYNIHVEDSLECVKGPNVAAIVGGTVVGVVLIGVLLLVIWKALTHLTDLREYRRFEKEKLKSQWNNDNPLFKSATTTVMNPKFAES", "assay": "cell-based or functional assay"}}, "note": "cellulose = cellulose membrane support; βAla = NCCC(=O)O"}
{"binder": "B1", "values": [{"measurement": "binding result", "setting": "[1]", "result": "binds"}]}
{"binder": "B2", "values": [{"measurement": "binding result", "setting": "[1]", "result": "binds"}]}
{"binder": "B3", "values": [{"measurement": "phagocytosis of Dyn A-treated fluorescent latex beads by IC-21 murine macrophages, against control beads", "setting": "[2]", "result": "~10", "unit": "fold"}]}
